Legend:
Human IL-18 (human) [1] = molecular target: Human IL-18 (human) (UniProt Q14116)
Human IL-18 (human) [2] = molecular target: Human IL-18 (human) (UniProt Q14116); conditions: cited from earlier work

Human IL-18 (human), sequence (Q14116 37-193): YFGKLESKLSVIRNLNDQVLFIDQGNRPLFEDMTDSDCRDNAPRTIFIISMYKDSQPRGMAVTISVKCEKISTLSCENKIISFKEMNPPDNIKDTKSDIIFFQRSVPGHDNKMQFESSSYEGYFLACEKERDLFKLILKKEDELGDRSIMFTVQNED
Clinical-grade recombinant human IL-18BP, sequence (O95998 31-194): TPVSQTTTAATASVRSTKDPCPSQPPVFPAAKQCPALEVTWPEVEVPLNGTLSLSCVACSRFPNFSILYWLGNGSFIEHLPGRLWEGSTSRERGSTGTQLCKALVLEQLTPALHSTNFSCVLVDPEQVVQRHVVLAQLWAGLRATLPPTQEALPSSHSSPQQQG
IL-18BP, sequence (O95998 31-194): as above

Substance	reduction of IL-12/IL-18-induced IFNγ production in human PBMC cultures by IL-18BP (24 h) (Human IL-18 (human) [1]) [%]	reduction of IL-12/IL-18-induced IL-6 release in human PBMC cultures by IL-18BP (24 h) (Human IL-18 (human) [1]) [%]	Kd (Human IL-18 (human) [2]) [nM]
Clinical-grade recombinant human IL-18BP (from UniProt O95998 31-194) (natural protein)	95	85	
IL-18BP (from UniProt O95998)			0.5

Reference: paper PMC8018910
